# Laboratory results as given in patent US20230220589A1.
# Assays:
# [1] = target: M44-modified H NTAA target peptides; assay: encoding assay; P2 F
# [2] = target: M44-modified T NTAA target peptides; assay: encoding assay; P2 F
# [3] = target: M44-modified A NTAA target peptides (M44-A-P2-peptide); assay: encoding assay; P2 F
# [4] = target: M44-modified L NTAA target peptides (M44-L-P2-peptide); assay: encoding assay; P2 F;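 also: fraction of recording tags encoded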
# [5] = target: M44-modified Q NTAA target peptides; assay: encoding assay; P2 F
# [6] = target: M44-modified E NTAA target peptides; assay: encoding assay; P2 F;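 also: fraction of recording tags encoded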
# [7] = target: M44-modified V NTAA target peptides; assay: encoding assay; P2 F;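 also: fraction of recording tags encoded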
# [8] = target: M44-modified F NTAA target peptides (M44-F-P2-peptide); assay: encoding assay; P2 F;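 also: fraction of recording tags encoded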
# [9] = target: M44-modified G NTAA target peptides (M44-G-P2-peptide); assay: encoding assay; P2 F;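 also: fraction of recording tags encoded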
# [10] = target: M44-modified D NTAA target peptides; assay: encoding assay; P2 F;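 also: fraction of recording tags encoded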
# [11] = target: M44-modified P NTAA target peptides; assay: encoding assay; P2 F;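 also: fraction of recording tags encoded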
# [12] = target: M44-modified W NTAA target peptides; assay: encoding assay; P2 G;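 also: fraction of recording tags encoded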
# [13] = target: M44-modified M NTAA target peptides; assay: encoding assay; P2 G
# [14] = target: M44-modified T NTAA target peptides; assay: encoding assay; P2 G
# [15] = target: M44-modified L NTAA target peptides (M44-L-P2-peptide); assay: encoding assay; P2 G;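 also: fraction of recording tags encoded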
# [16] = target: M44-modified Q NTAA target peptides; assay: encoding assay; P2 G
# [17] = target: M44-modified E NTAA target peptides; assay: encoding assay; P2 G;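 also: fraction of recording tags encoded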
# [18] = target: M44-modified Y NTAA target peptides (M44-Y-P2-peptide); assay: encoding assay; P2 G;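 also: fraction of recording tags encoded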
# [19] = target: M44-modified I NTAA target peptides (M44-I-P2-peptide); assay: encoding assay; P2 G
# [20] = target: M44-modified V NTAA target peptides; assay: encoding assay; P2 G;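 also: fraction of recording tags encoded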
# [21] = target: M44-modified F NTAA target peptides (M44-F-P2-peptide); assay: encoding assay; P2 G;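 also: fraction of recording tags encoded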
# [22] = target: M44-modified N NTAA target peptides; assay: encoding assay; P2 P
# [23] = target: M44-modified M NTAA target peptides; assay: encoding assay; P2 P
# [24] = target: M44-modified H NTAA target peptides; assay: encoding assay; P2 P
# [25] = target: M44-modified S NTAA target peptides; assay: encoding assay; P2 P
# [26] = target: M44-modified A NTAA target peptides (M44-A-P2-peptide); assay: encoding assay; P2 P
# [27] = target: M44-modified L NTAA target peptides (M44-L-P2-peptide); assay: encoding assay; P2 P;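 also: fraction of recording tags encoded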
# [28] = target: M44-modified Q NTAA target peptides; assay: encoding assay; P2 P
# [29] = target: M44-modified E NTAA target peptides; assay: encoding assay; P2 P;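 also: fraction of recording tags encoded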
# [30] = target: M44-modified Y NTAA target peptides (M44-Y-P2-peptide); assay: encoding assay; P2 P;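 also: fraction of recording tags encoded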
# [31] = target: M44-modified I NTAA target peptides (M44-I-P2-peptide); assay: encoding assay; P2 P
# [32] = target: M44-modified F NTAA target peptides (M44-F-P2-peptide); assay: encoding assay; P2 P;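 also: fraction of recording tags encoded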
# [33] = target: M44-modified D NTAA target peptides; assay: encoding assay; P2 P;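 also: fraction of recording tags encoded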
# [34] = target: M44-modified Y NTAA target peptides (M44-Y-P2-peptide); assay: encoding assay; P2 A;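 also: fraction of recording tags encoded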
# [35] = target: M44-modified F NTAA target peptides (M44-F-P2-peptide); assay: encoding assay; P2 A;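 also: fraction of recording tags encoded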
# [36] = target: M44-modified G NTAA target peptides (M44-G-P2-peptide); assay: encoding assay; P2 A;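 also: fraction of recording tags encoded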
# [37] = target: M44-modified N NTAA target peptides; assay: encoding assay; P2 H
# [38] = target: M44-modified W NTAA target peptides; assay: encoding assay; P2 H;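 also: fraction of recording tags encoded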
# [39] = target: M44-modified M NTAA target peptides; assay: encoding assay; P2 H
# [40] = target: M44-modified H NTAA target peptides; assay: encoding assay; P2 H
# [41] = target: M44-modified T NTAA target peptides; assay: encoding assay; P2 H
# [42] = target: M44-modified A NTAA target peptides (M44-A-P2-peptide); assay: encoding assay; P2 H
# [43] = target: M44-modified L NTAA target peptides (M44-L-P2-peptide); assay: encoding assay; P2 H;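 also: fraction of recording tags encoded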
# [44] = target: M44-modified Q NTAA target peptides; assay: encoding assay; P2 H
# [45] = target: M44-modified Y NTAA target peptides (M44-Y-P2-peptide); assay: encoding assay; P2 H;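 also: fraction of recording tags encoded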
# [46] = target: M44-modified I NTAA target peptides (M44-I-P2-peptide); assay: encoding assay; P2 H
# [47] = target: M44-modified V NTAA target peptides; assay: encoding assay; P2 H;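 also: fraction of recording tags encoded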
# [48] = target: M44-modified F NTAA target peptides (M44-F-P2-peptide); assay: encoding assay; P2 H;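 also: fraction of recording tags encoded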
# [49] = target: M44-modified D NTAA target peptides; assay: encoding assay; P2 H;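 also: fraction of recording tags encoded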
# [50] = target: M44-modified P NTAA target peptides; assay: encoding assay; P2 H;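 also: fraction of recording tags encoded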
binder,measurement,setting,value
"engineered M44-L binder (SEQ ID NO: 31) (designed binder, not shown: small tags and cut ends; large carriers) QDSTQNLIPAPPLISVPLQPGFWTERFQGRWFLVGFAGNAVQKERQSRLTMQSLILELQEDNSYNITAINVRGQGCRYIISTLVPSSRPGQFTLGNIHSYPQIQSLDVQVADTDYDQFAMVFLQGTSENKQYFEVALAGRTKGLSDELKERFVSFAKSLGLKDNNIVFSVPTDQCIDN",encoding yield,[1],0.04
same,encoding yield,[2],0.04
same,encoding yield,[3],0.05
same,encoding yield,[4],0.13
same,encoding yield,[5],0.02
same,encoding yield,[6],0.03
same,encoding yield,[7],0.03
same,encoding yield,[8],0.09
same,encoding yield,[9],0.04
same,encoding yield,[10],0.03
same,encoding yield,[11],0.02
same,encoding yield,[12],0.04
same,encoding yield,[13],0.02
same,encoding yield,[14],0.04
same,encoding yield,[15],0.09
same,encoding yield,[16],0.01
same,encoding yield,[17],0.02
same,encoding yield,[18],0.03
same,encoding yield,[19],0.09
same,encoding yield,[20],0.02
same,encoding yield,[21],0.09
same,encoding yield,[22],0.02
same,encoding yield,[23],0.02
same,encoding yield,[24],0.03
same,encoding yield,[25],0.04
same,encoding yield,[26],0.03
same,encoding yield,[27],0.07
same,encoding yield,[28],0.02
same,encoding yield,[29],0.02
same,encoding yield,[30],0.03
same,encoding yield,[31],0.06
same,encoding yield,[32],0.08
same,encoding yield,[33],0.02
same,encoding yield,[34],0.04
same,encoding yield,[35],0.11
same,encoding yield,[36],0.03
same,encoding yield,[37],0.03
same,encoding yield,[38],0.03
same,encoding yield,[39],0.03
same,encoding yield,[40],0.02
same,encoding yield,[41],0.02
same,encoding yield,[42],0.02
same,encoding yield,[43],0.02
same,encoding yield,[44],0.03
same,encoding yield,[45],0.05
same,encoding yield,[46],0.02
same,encoding yield,[47],0.02
same,encoding yield,[48],0.01
same,encoding yield,[49],0.02
same,encoding yield,[50],0.03
"engineered M44-L binder (SEQ ID NO: 21) (designed binder, not shown: small tags and cut ends; large carriers) QVSVQPNFQQDKFLGRWFYAGHASNSSWYREKVAALSMAKLVVAPATDGGLNATETFLRKNQCETITSLLQPAGSLGSYSSRSPHGGSTWSTSVVETDYDQYALLYLQGSKGPGEDFRGAILASRTQTPRAELKEKFTAFSKAQGFTEDTIVFLPQTDKCMTEQ",encoding yield,[1],0.02
same,encoding yield,[2],0.02
same,encoding yield,[3],0.01
same,encoding yield,[4],0.06
same,encoding yield,[5],0.01
same,encoding yield,[6],0.01
same,encoding yield,[7],0.01
same,encoding yield,[8],0.01
same,encoding yield,[9],0.02
same,encoding yield,[10],0.01
same,encoding yield,[11],0.01
same,encoding yield,[12],0.01
same,encoding yield,[13],0.01
same,encoding yield,[14],0.02
same,encoding yield,[15],0.07
same,encoding yield,[16],0.01
same,encoding yield,[17],0.01
same,encoding yield,[18],0.01
same,encoding yield,[19],0.17
same,encoding yield,[20],0.02
same,encoding yield,[21],0.03
same,encoding yield,[22],0.01
same,encoding yield,[23],0.04
same,encoding yield,[24],0.01
same,encoding yield,[25],0.02
same,encoding yield,[26],0.01
same,encoding yield,[27],0.09
same,encoding yield,[28],0.01
same,encoding yield,[29],0.01
same,encoding yield,[30],0.02
same,encoding yield,[31],0.01
same,encoding yield,[32],0.09
same,encoding yield,[33],0.01
same,encoding yield,[34],0.01
same,encoding yield,[35],0.07
same,encoding yield,[36],0.01
same,encoding yield,[37],0.01
same,encoding yield,[38],0.01
same,encoding yield,[39],0.01
same,encoding yield,[40],0.01
same,encoding yield,[41],0.01
same,encoding yield,[42],0.01
same,encoding yield,[43],0
same,encoding yield,[44],0.01
same,encoding yield,[45],0.02
same,encoding yield,[46],0.01
same,encoding yield,[47],0.01
same,encoding yield,[48],0.01
same,encoding yield,[49],0.01
same,encoding yield,[50],0.01
